Two molecules from article PMC2784022 can be followed below.

The experiment concerns the target Gal4BD-TR4LBD (mouse) (UniProt P49117). In words: two-hybrid.
UniProt P49117, sequence (P49117 178-477): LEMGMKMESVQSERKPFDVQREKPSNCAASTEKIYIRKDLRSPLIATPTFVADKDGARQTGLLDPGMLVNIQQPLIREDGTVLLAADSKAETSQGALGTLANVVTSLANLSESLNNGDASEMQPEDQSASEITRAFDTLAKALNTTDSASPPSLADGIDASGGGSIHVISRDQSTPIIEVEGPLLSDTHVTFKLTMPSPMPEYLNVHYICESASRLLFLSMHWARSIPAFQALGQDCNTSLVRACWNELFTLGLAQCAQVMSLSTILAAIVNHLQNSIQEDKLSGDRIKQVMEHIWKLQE

On to “VP16AD-PCAF (from UniProt Q92831 1-832) (natural protein)”, for which the fold enhancement of the two-hybrid reporter with γ-linoleic acid amounted to 12 fold.

B1: VP16AD-RIP140 (natural protein)
chain: MTHGEELGSDVHQDSIVLTYLEGLLMHQAAGGSGTAINKKSAGHKEEDQNFNLSGSAFPSCQSNGPTVSTQTYQGSGMLHLKKARLLQSSEDWNAAKRKRLSDSIVNLNVKKEALLAGMVDSVPKGKQDSTLLASLLQSFSSRLQTVALSQQIRQSLKEQGYALSHESLKVEKDLRCYGVASSHLKTLLKKSKTKDQKSGPTLPDVTPNLIRDSFVESSHPAVGQSGTKVMSEPLSCAARLQAVASMVEKRASPAASPKPSVACSQLALLLSSEAHLQQYSREHALKTQNAHQVASERLAAMARLQENGQKDVGSSQLSKGVSGHLNGQARALPASKLVANKNNAATFQSPMGVVPSSPKNTSYKNSLERNNLKQAANNSLLLHLLKSQTIPTPMNGHSQNERASSFESSTPTTIDEYSDNNPSFTDDSSGDESSYSNCVPIDLSCKHRIEKPEAERPVSLENLTQSLLNTWDPKIPGVDIKEDQDTSTNSKLNSHQKVTLLQLLLGHKSEETVERNASPQDIHSDGTKFSPQNYTRTSVIESPSTNRTTPVSTPPLYTASQAESPINLSQHSLVIKWNSPPYACSTPASKLTNTAPSHLMDLTKGKESQAEKPAPSEGAQNSATFSASKLLQNLAQCGLQSSGPGEEQRPCKQLLSGNPDKPLGLIDRLNSPLLSNKTNAAEESKAFSSQPAGPEPGLPGCEIENLLERRTVLQLLLGNSSKGKNEKKEKTPARDEAPQEHSERAANEQILMVKIKSEPCDDFQTHNTNLPLNHDAKSAPFLGVTPAIHRSTAALPVSEDFKSEPASPQDFSFSKNGLLSRLLRQNQESYPADEQDKSHRNSELPTLESKNICMVPKKRKLYTEPLENPFKKMKNTAVDTANHHSGPEVLYGSLLHQEELKFSRNELDYKYPAGHSSASDGDHRSWARESKSFNVLKQLLLSENCVRDLSPHRSDSVPDTKKKGHKNNAPGSKPEFGISSLNGLMYSSPQPGSCVTDHRTFSYPGMVKTPLSPPFPEHLGCVGSRPEPGLLNGCSVPGEKGPIKWVIADMDKNEYEKDSPRLTKTNPILYYMLQKGGGNSVTTQETQDKDIWREPASAESLSQVTVKEELLPAAETKASFFNLRSPYNSHMGNNASRPHSTNGEVYGLLGNALTIKKESE
Take B1: the fold enhancement of the two-hybrid reporter with γ-linoleic acid came to 23 fold.
